The source of these data is paper PMC9665036.

Experiment [1] concerns the target SpyCatcher-AP205 capsid virus-like particle (cVLP) (Acinetobacter phage AP205). The experiment in a line: covalent SpyTag-SpyCatcher coupling, SDS-PAGE densitometry; SpyTagged sE2 mixed with SpyCatcher-AP205 cVLP at molar ratio 2:1 (antigen per cVLP binding site), 36 h at 4 °C; Coomassie SDS-PAGE, densitometry (ImageQuantTL).
Experiment [2] deals with oligomeric soluble HCV E2 (sE2, Con1 isolate, genotype 1b) with C-terminal 6x His tag and SpyTag, SEC peak 2 (Hepatitis C virus, isolate Con1 (genotype 1b)) (UniProt Q9WMX2). The experiment in a line: SEC; analytical SEC of the purified sE2 SEC peak fractions against marker proteins of known size. A general note: Size exclusion chromatography separates by hydrodynamic size, large species first.

Experiment [3] has the same target. The experiment is described as follows: non-reducing SDS-PAGE; SEC peaks of sE2 in SDS-PAGE, Coomassie staining, with or without reducing agent (DTT).

Regarding “monomeric soluble HCV E2 (sE2, Con1 isolate, genotype 1b) with C-terminal 6x His tag and SpyTag, SEC peak 1 (from UniProt Q9WMX2 384-661) (domain or fragment)”, the coupling efficiency in experiment [1] is 60%.
For orientation: stoichiometry N means a count of units in the complex or per binding partner. As for “oligomeric soluble HCV E2 (sE2, Con1 isolate, genotype 1b) with C-terminal 6x His tag and SpyTag, SEC peak 2 (from UniProt Q9WMX2 384-661) (domain or fragment)”, the stoichiometry N in experiment [2] was 4; in experiment [3], 2. In addition, in experiment [1], the coupling efficiency came out at 60%.
